Measurements: publication doi:10.1101/2021.10.28.465226

Target: SARS-CoV-2 spike heptad repeat 1 (HR1) with C-terminal poly-his tag (SARS-CoV-2)
Assay: SPR

Substance: SARS-CoV-2 spike heptad repeat 2 (HR2) peptide
- Kd: 2.24 nM
